{
  "source": "patent US20230295275A1",
  "about": "(FLAGSHIP PIONEERING INNOVATIONS VI, published 2023)",
  "key": {"[1]": {"biological_target": "soluble G614 HexaPro spike ectodomain (SARS-CoV-2, UniProt P0DTC2 14-1208)"}, "[2]": {"biological_target": "D614 SARS-CoV-2 spike (SARS-CoV-2, UniProt P0DTC2 14-1208)"}},
  "data": [
    {"binder": "AB-1 full-length IgG1 (antibody, V domains shown) VH: QMQLVQSGTEVKKPGESLKISCKGSGYGFITVWIGWVRQMPGKGLEWMGIIYPGDSETRYSPSFQGQVTISADKSINTAYLQWSSLKASDTAIYYCAGGSGISTPMDVWGQGTTVTVSS VL: not shown", "values": [
      {"measurement": "Kd", "setting": "[1]", "value": 3.39, "unit": "nM"},
      {"measurement": "Kd", "setting": "[2]", "value": 1.66, "unit": "nM"}
    ]},
    {"binder": "AB-2 full-length IgG1 (antibody, V domains shown) VH: QMQLVQSGTEVKKPGESLKISCKGSGSGTITVWIGWVRQMPGKGLEWMGIIYPGDSETRYSPSFQGQVTISADKSINTAYLQWSSLKASDTAIYYCAGGSGISTPMDVWGQGTTVTVSS VL: not shown", "values": [
      {"measurement": "Kd", "setting": "[1]", "value": 2.79, "unit": "nM"},
      {"measurement": "Kd", "setting": "[2]", "value": 1.48, "unit": "nM"}
    ]},
    {"binder": "AB-4 full-length IgG1 (antibody, V domains shown) VH: QMQLVQSGTEVKKPGESLKISCKGSGSGFITYWIGWVRQMPGKGLEWMGIIYPGDSETRYSPSFQGQVTISADKSINTAYLQWSSLKASDTAIYYCAGGSGIHTPMDVWGQGTTVTVSS VL: not shown", "values": [
      {"measurement": "Kd", "setting": "[1]", "value": 2.71, "unit": "nM"},
      {"measurement": "Kd", "setting": "[2]", "value": 1.72, "unit": "nM"}
    ]},
    {"binder": "AB-3 full-length IgG1 (antibody, V domains shown) VH: QMQLVQSGTEVKKPGESLKISCKGSGSGFITVWIGWVRQMPGKGLEWMGIIYPGDSETRYSPSFQGQVTISADKSINTAYLQWSSLKASDTAIYYCAGGSGISTPMDVWGQGTTVTVSS VL: not shown", "values": [
      {"measurement": "Kd", "setting": "[1]", "value": 1.74, "unit": "nM"},
      {"measurement": "Kd", "setting": "[2]", "value": 0.907, "unit": "nM"}
    ]}
  ]
}
